Assay results published in patent publication US7217694B2, “Inhibitors of IAPP fibril formation and uses thereof” (The Governing Counsel of the University of Toronto, priority 2000, dated 2007).
“Also recorded” adds a separate entry of the source. No end group written: not given here.

What was measured:
RIN-1056A cells = test: IAPP toxicity assay (alamar Blue); assay type: cell-based
Description: RIN-1056A cells were plated into 96 well plates at a density of 2×10^4 cells/well in Dulbecco's Modified Eagle Medium (DMEM) (Gibco-BRL) supplemented with 5% Fetal calf serum (Gibco-BRL), 100 U/ml penicillin (Gibco-BRL), and 100 U/ml streptomycin (Gibco-BRL). After an initial 24 h of culture, cells received fresh medium containing 10 μM hIAPP or rat IAPP alone, or in combination with 200 μM SNNFGA (SEQ ID NO. 11). Cells in control wells received fresh medium only. Cells were incubated with peptide at 37° C., 5% CO2, for 24 hours, after which alamar Blue ( 1/10th volume) was added to each well. Cells were incubated in the presence of alamar Blue (MEDICORP, Montreal) for a period of 8 hours, and data was collected at 2 hour intervals. The fluorescence of the samples was measured using a SpectraMAX Gemini XS Microplate Spectrofluorometer (Molecular Devices) with an excitation wavelength of […] and an emission wavelength of 590 nm. Data were collected using the SoftMax Pro 3.1 software for MacIntosh.
The toxicity of hIAPP fibrils on pancreatic β cell lines has been well documented. […] cells were incubated for 24 hours in the presence of 10 μM hIAPP alone or in the presence of the peptide SNNFGA (SEQ ID NO. 11). An alamar Blue assay was used to quantitatively measure the proliferation of the cells, and compare the cytotoxic effects of various additives to the cultures.

hIAPP 1–37 [1] = biological target: T1, hIAPP 1–37 (Homo sapiens, UniProt P10997); test: Circular dichroism (CD) of IAPP conformational change, random coil to β-sheet; assay type: biochemical
T1 construct: Synthetic human IAPP (1–37) was purchased from BACHEM; purchased BACHEM (Torrence, Calif.); host or cells: chemical synthesis
T1 sequence (P10997 34-70): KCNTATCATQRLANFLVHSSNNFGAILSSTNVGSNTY
From the text: (§1) FIG. 1 illustrates the sequence of the amyloid-β (Aβ) peptide and its proposed structural domains. A peptide-based approach similar to that used for Aβ (Tjernberg, et al, J Biol Chem 272:12601–12605, 1997) has been used for targeting two key domains in IAPP initially ranging from the 8–20 and 20–29 sequences as shown in FIG. 2. These peptides, as has been shown for Aβ peptides, are able to bind to the full-length IAPP peptide and alter fibrillogenesis. The peptides disrupt fibrillogenesis by disrupting the folding into the amyloidogenic β-sheet conformation, disrupting protofilament interactions, and/or interfering with side chain interactions within the folded IAPP, which are necessary for aggregation and fibril formation. The peptides that have been examined (shown in FIG. 2) were small, synthetic hexapeptides that correspond to the principal sequence domains of IAPP. […] The in vitro assays included: Circular Dichroism (CD), to look at changes in folding of the amyloidogenic β-sheet; negative stain electron microscopy (EM) to examine changes in fibril morphology and relative density; and ThT fluorescence assay which provides a quantitative assessment of fibril formation.
Synthetic human IAPP (1–37) was purchased from BACHEM (Torrence, Calif.), synthetic peptides spanning the region from IAPP 8 to 20 and 19–31 (FIG. 3) were synthesized by the Peptide Synthesis Laboratory at the University of Toronto using standard FMOC (Fluoroenylmethoxycarbonyl) based solid phase peptide synthesis methodology. The peptides were purified by reverse phase HPLC using water/acetonitrile mixtures buffered with 0. 1% trifluoroacetic acid, on a POROS 20R2 column. The synthetic peptides were solubilized in […] (1 mg/ml), filtered (0.2 μm), aliquotted and lyophilized (Higham, C E., et al., FEBS Lett. 470: 55–60, 2000). Aliquots were reconstituted as required in 20 mM sodium acetate buffer pH 6.5.
CD was used to measure the peptide conformational changes associated with fibril formation. CD experiments were carried out at room temperature, and spectra (average of 5 scans) were collected using a Jasco J720 spectropolarimeter and quartz cuvettes with a path length of 1 mm. […]

hIAPP 1–37 [2] = biological target: T1, hIAPP 1–37; test: Negative stain electron microscopy of IAPP fibril morphology and density; assay type: biochemical
From the text: as §1
TEM was used for structural analysis of in vitro assembled fibrils. Aliquots (4 μl) were applied to pioloform and carbon coated grids. The samples were incubated on the grids for 3 minutes at room temperature, excess material blotted off and stained with 1% phosphotungstic acid (PTA). Excess PTA was blotted off and the sample was left to air dry. All samples were examined using a Hitachi 7000 electron microscope with an accelerating voltage of 75 kV.
In preliminary work the series of peptides were synthesized from the 20–29 domain and examined, via CD, EM and ThT fluorescence, at two molar ratios (1:10 and 1:20) in comparison to the full-length IAPP residues 1–37. The following data (FIGS. 5A to 5D, 6A to 6C and 7A to 7B) were obtained.

hIAPP 1–37 [3] = biological target: T1, hIAPP 1–37; test: Sedimentation assay (tyrosine scan) of soluble versus insoluble hIAPP; assay type: biochemical; conditions: hIAPP 11 μM with 10 fold excess (110 μM) peptide
Description: Aliquots of lyophilized hIAPP 1–37 were dissolved in 20 mM acetate buffer (pH 6.5) to 11 μM and incubated in a total volume of 500 μl at room temperature. Tyrosine emission spectra were collected (emission wavelength 275 nm) on a Beckman DU530 spectrophotometer for each sample at time 0. Following a 24 hour incubation at room temperature, the soluble and aggregated peptides in each sample were separated by centrifugation at 16,000 g for 20 minutes, and the emission spectra were measured on the soluble fractions. The samples were then vortexed to resuspend the entire contents of each tube, and were incubated for an additional 24 hours. This process was repeated for a total of 72 hours of incubation. For co-incubation experiments, hIAPP was incubated with a 10 fold excess concentration (110 μM) of the inhibitory peptides SNNFGA (SEQ ID NO. 11), and GAILSS (SEQ ID NO. 14).
Sedimentation assays were performed to confirm the results from CD and electron microscopic analysis (FIGS. 7A and 7B) on the ability of peptides SNNFGA (SEQ ID NO. 11) and GAILSS (SEQ ID NO. 14) to inhibit IAPP fibril formation. hIAPP (11 μM) was incubated for a period of 72 hours in 20 mM acetate buffer alone, or with a 10 fold excess (110 μM) of the peptides.
A tyrosine scan was used to determine the amount of soluble hIAPP remaining in solution after a 72-hour incubation. […] Following a 24-hour incubation, the amount of soluble hIAPP had reduced to 8%. However, when hIAPP was incubated in the presence of the peptide SNNFGA (SEQ ID NO. 11), the amount of IAPP remaining in solution was approximately […], and in the presence of peptide GAILSS (SEQ ID NO. 14), more than 80% of the hIAPP remained in solution. By 48 hours, the hIAPP incubated alone was no longer soluble and was not detectable using a tyrosine scan. However, approximately 25% of the hIAPP was still measured when co-incubated with either peptide. Similarly, after 72 hours approximately 20% of the hIAPP was still soluble in the sample co-incubated with peptide SNNFGA (SEQ ID NO. 11) or GAILSS (SEQ ID NO. 14).

[4] = 24-hour incubation, normalized to hIAPP alone at time 0

amount of hIAPP remaining in solution (hIAPP 1–37 [3]; [4]) | amount of hIAPP remaining in solution (hIAPP 1–37 [3]; 48 hours) | amount of hIAPP remaining in solution (hIAPP 1–37 [3]; 72 hours) | Compound | decrease in cell viability compared to cells in culture medium alone (RIN-1056A cells; 10 μM hIAPP, 24 hours) | inhibition of IAPP β-sheet transition and aggregation (CD) (hIAPP 1–37 [1]; 1:10 or 1:20 molar ratio (10- or 20-fold molar excess)) | inhibition of IAPP β-sheet conformational change at reduced concentrations (CD) (hIAPP 1–37 [1]; 5-fold molar excess (1:5) or 1:1 molar ratio) | effect on IAPP β-sheet formation / precipitation (CD) (hIAPP 1–37 [1]; 48-hour incubation, pH 6.5) | inhibition of IAPP β-sheet formation / fibril formation, overall statement (CD) (hIAPP 1–37 [1]; molar ratio not stated) | effect on initial random structure of IAPP (CD) (hIAPP 1–37 [1]; time 0, 1:10 or 1:20 molar ratio) | prevention of IAPP fibril formation (EM) (hIAPP 1–37 [2]; 10- or 20-fold molar excess) | effect on IAPP fibril morphology / density / aggregation (EM) (hIAPP 1–37 [2]; molar ratio not stated) | inhibition of normal IAPP fibrillar aggregation (EM) (hIAPP 1–37 [2]; reduced inhibitor concentrations) | direct toxicity of the peptide to pancreatic β cells in culture (RIN-1056A cells)
 |  |  | CC[C@H](C)[C@H](NC(=O)[C@H](C)NC(=O)CNC(=O)[C@H](Cc1ccccc1)NC(=O)[C@H](CC(N)=O)NC(=O)[C@H](CC(N)=O)NC(=O)[C@H](CO)NC(=O)[C@H](CO)NC(=O)[C@H](Cc1c[nH]cn1)NC(=O)[C@@H](NC(=O)[C@H](CC(C)C)NC(=O)[C@H](Cc1ccccc1)NC(=O)[C@H](CC(N)=O)NC(=O)[C@H](C)NC(=O)[C@H](CC(C)C)NC(=O)[C@H](CCCNC(=N)N)NC(=O)[C@H](CCC(N)=O)NC(=O)[C@@H](NC(=O)[C@H](C)NC(=O)[C@@H]1CSSC[C@H](NC(=O)[C@@H](N)CCCCN)C(=O)N[C@@H](CC(N)=O)C(=O)N[C@@H]([C@@H](C)O)C(=O)N[C@@H](C)C(=O)N[C@@H]([C@@H](C)O)C(=O)N1)[C@@H](C)O)C(C)C)C(=O)N[C@@H](CC(C)C)C(=O)N[C@@H](CO)C(=O)N[C@@H](CO)C(=O)N[C@H](C(=O)N[C@@H](CC(N)=O)C(=O)N[C@H](C(=O)NCC(=O)N[C@@H](CO)C(=O)N[C@@H](CC(N)=O)C(=O)N[C@H](C(=O)N[C@@H](Cc1ccc(O)cc1)C(N)=O)[C@@H](C)O)C(C)C)[C@@H](C)O [hIAPP, reference compound] | 35–40% |  |  |  |  |  |  |  |  | 
more than 80% | approximately 25% | approximately 20% | GAILSS |  | very strong inhibitors of IAPP β-sheet transition; also recorded: majority of IAPP in these samples was maintained in a random conformation | very strong inhibitor; also recorded: capable of maintaining the majority of hIAPP in a random coil conformation | able to prevent the attenuation of signal due to precipitation of IAPP | greatest inhibition of IAPP fibril formation | had no effect on the initial random structure of IAPP | did not completely prevent fibril formation | caused a disruption in IAPP fibrillar structure; also recorded: fibrils formed were less numerous; also recorded: absence of fibrillar aggregates which could act as seeds | effective inhibitors of normal IAPP fibrillar aggregation | 
approximately 15% | approximately 25% | approximately 20% | SNNFGA [SNNFGA] |  |  |  |  |  |  |  |  |  | not directly toxic
